Measurements published in US8003345B2, “Antioxidant pharmaceutical compound, method for producing polypeptide and method of cure” (Institute of Cell Biophysics Russian Academy of Sciences, priority 2002, dated 2011).

What was measured:
[1] = Cytotoxicity: number of live line L929 cells; format: cell-based, human; conditions: 0.1-10 μg/ml concentration; Trypan stain
Procedure: (§1) The cytotoxicity is determined from the influence of recombinant Prx V1hum or of natural rat Prx V1rat on the level of proliferation of line L929 human lymphoblastoma cells and of T-lymphocytes from the spleen of line NRRI rats stimulated with concavalin A.
(§2) Cells of two lines with the concentration of 10^4 cells/ml medium were cultivated in RPMI 1640 containing 5% of bovine fetal serum. The stimulation of T-lymphocytes was carried out with the 0.1 μg/ml concentration of concavalin. In the case of T-lymphocytes the proliferation level was determined from the inclusion of ^3H-thymidine. The number of live line L929 cells was determined in a 96-cell plate with the aid of a Trypan stain, followed by scanning on a Multiscan multichannel photometer (LKB, Sweden).

oxyhemoglobin = assay: Protection of oxyhemoglobin from the action of ionizing radiation; format: biochemical; conditions: about 50 μg/ml added before irradiation; 10 Gy; registered at 635 nm
Excerpt: The antiradiation properties of Prx Vlhum are investigated both in vitro, by investigating a solution of hemoglobin, and in vivo on animals. Irradiation of a solution of hemoglobin (see Example 10) leads to essential changes in its structure (appearance of peaks at 635 nm and an increase of light scattering), this being indicative of conversion of oxyhemoglobin to methemoglobin, followed by the aggregation thereof.
For checking the possibility of protecting biological macromolecules from destruction caused by ionizing radiation with the aid of peroxiredoxin, we have investigated the characteristics of irradiated oxyhemoglobin in control and in the presence of peroxiredoxin. In control we used a solution of oxyhemoglobin (0.16 D at 540 nm) in 0.1 M of Tris-HCl (pH 7.0) which was irradiated in a GUBE apparatus with the total exposure dose of 10 Gy. As the radioprotector peroxiredoxin Prx V1hum was used in different concentrations (5-100 μg/ml) in the presence of 50 μM of dithiothreitol. The formation of oxidized forms of oxyhemoglobin (methemoglobin) was registered at 635 nm, and aggregation of methemoglobin was registered at 700 nm.

[2] = test system: T-lymphocytes from the spleen of line NRRI rats stimulated with concavalin A; assay: Proliferation of concanavalin A-stimulated T-lymphocytes (3H-thymidine inclusion); format: cell-based; conditions: 0.1-1.0 mg/ml concentration, against cells stimulated only with concavalin A
Procedure: as §1, §2

[3] = test system: Wistar line rats subjected to gamma-irradiation; assay: Survival of rats after gamma-irradiation at a dose of 6 Gy; conditions: for number of rats survived: groups of 6 rats, intravenous before irradiation
Procedure: The radioprotector properties of peroxiredoxin in experiments in vivo are determined on an example of protecting animals from the action of gamma-irradiation in a sublethal dose with an intensity of 6 Gy.
Simultaneous irradiation of all animals (Wistar line rats weighing 200 grams) was carried out on a GUBE apparatus. The exposure dose was 6 Gy. The rats were divided into two groups. The first group of the animals (n=6) was used for control. The animals of the second group (n=6) 30-60 minutes before the irradiation were administered intravenously with 1 mg of peroxiredoxin Prx VI (1 ml of physiological solution at the peroxiredoxin concentration of 1 μg/ml). After the irradiation the animals were kept in common premises with sufficient amount of food, illumination and ventilation. For histological investigation animals with symptoms of worsened general conditions were chose from each group.

B1: Prx VIhum: recombinant full-size human peroxiredoxin Prx VI, 224 amino acids (SEQ ID NO: 1), produced in E.coli (protein)
chain: MPGGLLLGDVAPNFEANTTVGRIRFHDFLGDSWGILFSHPRDFTPVCTTELGRAAKLAPEFAKRNVKLIALSIDSVEDHLAWSKDINAYNCEEPTEKLPFPIIDDRNRELAILLGMLDPAEKDEKGMPVTARVVFVFGPDKKLKLSILYPATTGRNFDEILRVVISLQLTAEKRVATPVDWKDGDSVMVLPTIPEEEAKKLFPKGVFTKELPSGKKYLRYTPQP
effect on the number of live line L929 cells [1]: did not produce any effect
concentration of oxidized forms of hemoglobin (oxyhemoglobin): lowered almost to zero
cell proliferation level of T-lymphocytes stimulated with concavalin A [2]: increased approximately twofold
number of rats survived ([3]; 3 months, 6 Gy): 6
number of rats survived ([3]; 6 months, 6 Gy): 5
number of rats survived ([3]; 12 months, 6 Gy): 4
number of rats survived ([3]; 15 months, 6 Gy): 4
mortality of the rats ([3]; administered before irradiation, 6 Gy, versus control group): essentially lower than in the control group
general condition of the survived animals ([3]; one year after the irradiation, compared with the control group): differed markedly in favor of the second group
number of irradiation-associated malignant neoplasms ([3]; single injection into a vein 30 minutes before irradiation, 6 Gy): diminish the number of irradiation -associated malignant neoplasms
